Experimental data taken from article PMC6615493, “The Role of Iron and Copper on the Oligomerization Dynamics of DR_2577, the Main S-Layer Protein of Deinococcus radiodurans” (Frontiers in Microbiology, 2019).
Values joined by “and” are separate entries in the source; they are usually repeats but may differ in a detail not shown here. Equal values may be shown once.

Molecular target: the molecule itself
Test: SEC; Superose 6 10/300GL, 50 µl protein at 0.2 mg/ml, 0.05% β-DDM; 50 mM phosphate (pH >= 7) or 50 mM Na acetate (pH <= 6); control runs, runs with EDTA, at lower pH and with Cu2+; close-to-native conditions

B1: DR_2577, the main S-layer protein of Deinococcus radiodurans (natural protein, UniProt Q9RRB6 23-1167, looked up)
chain: APVSAPQVPALTDVPAGHWAKDAIDRLVSRGVILGYPDGTFRGTQNLTRYEAAIIIARLLDQMRDGETPAGMTAEDMTALQNAIQELAADLAALGVRVSDLEANAVSKDDFARLEARIEEVAAAGGEQGATEALQGQIDDLTARVDEYDALRADVDDNASSIAALNDLTVLLNQDILDLQDRVSAVEAAQADFVQRSDFDALGGRVTTVETRVETVNNSLTGRIAALERNAFSVKPSLTIGYSVSRTSRNFDVDRLFPLNADGTVANNAFTSGGIDTDTGAQRRDFGDFGNASDPVVAGAAGLYGFADGVSYTVYFTDGSTATFDGLNPADYKVPTGKVIDTTKGRNGFGFNNLARYKEGSTDIGISLGFDTSGQFSQVTSGTGGSLFSTAGRLQVNQIDLNFGLVTGLPSDAYVDTNGNGKKDDGEATGRGTYLGSGGTAAILRDPAGNVYRPVFFRFKNATTQFSVGNNPVIVTLGQQQKFYFSDYVFDNNYDGRGDGFTVTVDGSNVPVIGAWKPQIKGVYGSRSGLDGTAEAGYGVYYRGVRAQITPVGTLTAGIHYAQEGRDMFGAAQNTTSTPSDVTTYGADLHGKAFGVELHSEYATSRVRPNTANAAVQTSNAFYARVATRKDNLAFDLNTPAAKFGNDTFGVSLYDLNYRKIDAGYNNVAGISEYGYGSYSRTSAQNIAYNPDTGVTAPFANLDRQAYTDANNDGTSDRNADGTVVATNTKIGQMGFGVKAAANLGPVAIGGYYDTSTGANGDNANRMTEAGGSAKVAYSIFSLRGTYNTLDSNRPQIYRDAAGTQIIGDAKVRRYAVQADVTPGLGLFVGAYYRDVNVNGVRSTTDRGLLGRGYLASSFEPGVGNNAYRTGLRCADNNFGTGTRDIDGVGGVLNPAVNLDQSRTATCFTSYGVEAGHAGDNANALVKDLFFRVGYSRVYVPTTATATTGDFSGSVTYGDARYDRKVGVANVRLAGSFSTTNTQLDSRPAGTRGAVGLIVRTDPLENVPFRPQFNGQVGYYTADNRVAAGNYNANATKYGAGVVLNDFLLPQTKIGVRYDGYMAQNRQYTPFDGDGTQGYFSDANNNRRTNLNGVYVEGAYQDLIFSYGTYTLSQKDLNGVEYGSGINNGQPARGQTFKISYKVNF
notes: DR_2577 (SlpA), main S-layer protein of Deinococcus radiodurans strain R1; The introduction describes it as a homo-hexamer of ~760 kDa (trimer of dimers); the dimers are said (cited work) to be held by intermolecular disulfide bonds; also called SlpA
- stoichiometry N: 6 and 2
